{
  "source": "IntAct's records for PubMed 17711851",
  "parents": {"B1": {"name": "Golgi resident protein GCP60 (Homo sapiens), Q9H3P7 (parent)", "chain": "MAAVLNAERLEVSVDGLTLSPDPEERPGAEGAPLLPPPLPPPSPPGSGRGPGASGEQPEPGEAAAGGAAEEARRLEQRWGFGLEELYGLALRFFKEKDGKAFHPTYEEKLKLVALHKQVLMGPYNPDTCPEVGFFDVLGNDRRREWAALGNMSKEDAMVEFVKLLNRCCHLFSTYVASHKIEKEEQEKKRKEEEERRRREEEERERLQKEEEKRRREEEERLRREEEERRRIEEERLRLEQQKQQIMAALNSQTAVQFQQYAAQQYPGNYEQQQILIRQLQEQHYQQYMQQLYQVQLAQQQAALQKQQEVVVAGSSLPTSSKVNATVPSNMMSVNGQAKTHTDSSEKELEPEAAEEALENGPKESLPVIAAPSMWTRPQIKDFKEKIQQDADSVITVGRGEVVTVRVPTHEEGSYLFWEFATDNYDIGFGVYFEWTDSPNTAVSVHVSESSDDDEEEEENIGCEEKAKKNANKPLLDEIVPVYRRDCHEEVYAGSHQYPGRGVYLLKFDNSYSLWRSKSVYYRVYYTR", "partner": "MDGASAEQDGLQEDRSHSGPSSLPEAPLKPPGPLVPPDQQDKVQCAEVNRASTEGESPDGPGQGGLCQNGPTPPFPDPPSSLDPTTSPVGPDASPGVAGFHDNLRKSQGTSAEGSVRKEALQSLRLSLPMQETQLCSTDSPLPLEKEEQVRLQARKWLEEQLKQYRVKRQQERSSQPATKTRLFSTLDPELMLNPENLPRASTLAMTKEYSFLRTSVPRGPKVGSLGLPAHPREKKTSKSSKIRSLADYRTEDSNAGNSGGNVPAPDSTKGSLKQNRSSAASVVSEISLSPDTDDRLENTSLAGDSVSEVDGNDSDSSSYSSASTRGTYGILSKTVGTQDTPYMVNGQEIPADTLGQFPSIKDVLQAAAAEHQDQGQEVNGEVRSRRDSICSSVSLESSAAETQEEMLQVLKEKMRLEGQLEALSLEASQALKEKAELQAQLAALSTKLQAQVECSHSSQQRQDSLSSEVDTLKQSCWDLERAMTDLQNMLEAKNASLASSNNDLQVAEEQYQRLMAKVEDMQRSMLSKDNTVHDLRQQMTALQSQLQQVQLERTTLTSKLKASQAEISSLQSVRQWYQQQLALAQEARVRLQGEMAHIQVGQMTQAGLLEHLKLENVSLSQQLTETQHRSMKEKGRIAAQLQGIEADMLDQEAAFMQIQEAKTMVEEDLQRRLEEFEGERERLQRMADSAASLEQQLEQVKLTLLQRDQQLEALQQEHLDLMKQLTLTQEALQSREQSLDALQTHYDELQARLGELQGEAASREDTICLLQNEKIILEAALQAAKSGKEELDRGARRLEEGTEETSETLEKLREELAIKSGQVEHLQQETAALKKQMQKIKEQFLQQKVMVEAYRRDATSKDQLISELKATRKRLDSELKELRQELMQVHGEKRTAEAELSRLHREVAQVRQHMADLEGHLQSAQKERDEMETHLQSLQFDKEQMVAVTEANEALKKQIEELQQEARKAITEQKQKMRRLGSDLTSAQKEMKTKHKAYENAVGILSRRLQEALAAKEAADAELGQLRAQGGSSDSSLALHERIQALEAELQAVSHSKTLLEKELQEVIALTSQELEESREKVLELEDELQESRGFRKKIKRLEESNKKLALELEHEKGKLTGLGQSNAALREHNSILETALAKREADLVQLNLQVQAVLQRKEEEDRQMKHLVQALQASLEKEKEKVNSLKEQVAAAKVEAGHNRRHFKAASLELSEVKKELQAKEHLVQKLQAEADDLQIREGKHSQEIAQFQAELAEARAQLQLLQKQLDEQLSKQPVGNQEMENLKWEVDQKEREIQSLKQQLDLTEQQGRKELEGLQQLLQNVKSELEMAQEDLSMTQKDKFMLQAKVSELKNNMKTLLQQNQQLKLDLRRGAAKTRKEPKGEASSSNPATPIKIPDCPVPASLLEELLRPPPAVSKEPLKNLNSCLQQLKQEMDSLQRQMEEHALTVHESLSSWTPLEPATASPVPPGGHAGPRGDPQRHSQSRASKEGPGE"}},
  "data": [
    {"variants_of": "B1", "conditions": "with goga3_human GOLGA3, Q08378", "values": [
      {"variant": "MAAVLNAERLEVSVDGLTLSPDPEERPGAEGAPLLPPPLPPPSPPGSGRGPGASGEQPEPGEAAAGGAAEEARRLEQRWGFGLEELYGLALRFFKEKDGKAFHPTYEEKLKLVALHKQVLMGPYNPDTCPEVGFFDVLGNDRRREWAALGNMSKEDAMVEFVKLLNRCCHLFSTYVASHKIEKEEQEKKRKEEEERRRREEEERERLQKEEEKRRREEEERLRREEEERRRIEEERLRLEQQKQQIMAALNSQTAVQFQQYAAQQYPGNYEQQQILIRQLQEQHYQQYMQQLYQVQLAQQQAALQKQQEVVVAGSSLPTSSKVNATVPSNMMSVNGQAKTHTDSSEKELEPEAAEEALENGPKESLPVIAAPSMWTRPQIKDFKEKIQQDADSVITVGRGEVVTVRVPTHEEGSYLFWEFATDNYDIGFGVYFEWTDSPNTAVSVHVSESSDDDEEEEENIGSEEKAKKNANKPLLDEIVPVYRRDCHEEVYAGSHQYPGRGVYLLKFDNSYSLWRSKSVYYRVYYTR", "note": "[C463S]", "effect of a mutation on the interaction": "disrupting interaction"}
    ]}
  ]
}
